# B1: unnamed (parent)
# chain 1: METLCQRLNVCQDKILTHYENDSTDLRDHIDYWKHMRLECAIYYKAREMGFKHINHQVVPTLAVSKNKALQAIELQLTLETIYNSQYSNEKWTLQDVSLEVYLTAPTGCIKKHGYTVEVQFDGDICNTMHYTNWTHIYICEEASVTVVEGQVDYYGLYYVHEGIRTYFVQFKDDAEKYSKNKVWEVHAGGQVILCPTSVFSSNEVSSPEIIRQHLANHPAATHTKAVALGTEETQTTIQRPRSEPDTGNPCHTTKLLHRDSVDSAPILTAFNSSHKGRINCNSNTTPIVHLKGDANTLKCLRYRFKKHCTLYTAVSSTWHWTGHNVKHKSAIVTLTYDSEWQRDQFLSQVKIPKTITVSTGFMSI
# chain 2: KAGRAEAEGLRAALAGAEVVRKNLEEGSQRELEEVQRLHQEQLSSLTQAHEEALSSLTSKAEGLEKSLSSLETRRAGEAKELAEAQREAELLRKQLSKTQEDLEAQVTLVENLRKYVGEQVPSEVHSQTWELERQKLLETMQHLQEDRDSLHATAELLQVRVQSLTHILALQEEELTRKVQPSDSLEPEFTRKCQSLLNRWREKVFALMVQLKAQELEHSDSVKQLKGQVASLQEKVTSQSQEQAILQRSLQDKAAEVEVERMGAKGLQLELSRAQEARRRWQQQTASAEEQLRLVVNAVSSSQIWLETTMAKVEGAAAQLPSLNNRLSYAVRKVHTIRGLIARKLALAQLRQESCPLPPPVTDVSLELQQLREERNRLDAELQLSARLIQQEVGRAREQGEAERQQLSKVAQQLEQELQQTQESLASLGLQLEVARQGQQESTEEAASLRQELTQQQELYGQALQEKVAEVETRLREQLSDTERRLNEARREHAKAVVSLRQIQRRAAQEKERSQELRRLQEEARKEEGQRLARRLQELERDKNLMLATLQQEGLLSRYKQQRLLTVLPSLLDKKKSVVSSPRPPECSASAPVAAAVPTRESIKGSLSVLLDDLQDLSEAISKEEAVCQGDNLDRCSSSNPQMSS
# B2: unnamed (parent)
# chain 1: B1 chain 1
# chain 2: MDQNNSLPPYAQGLASPQGAMTPGIPIFSPMMPYGTGLTPQPIQNTNSLSILEEQQRQQQQQQQQQQQQQQQQQQQQQQQQQQQQQQQQQQQQQQAVAAAAVQQSTSQQATQGTSGQAPQLFHSQTLTTAPLPGTTPLYPSPMTPMTPITPATPASESSGIVPQLQNIVSTVNLGCKLDLKTIALRARNAEYNPKRFAAVIMRIREPRTTALIFSSGKMVCTGAKSEEQSRLAARKYARVVQKLGFPAKFLDFKIQNMVGSCDVKFPIRLEGLVLTHQQFSSYEPELFPGLIYRMIKPRIVLLIFVSGKVVLTGAKVRAEIYEAFENIYPILKGFRKTT
# Variants of: B1
# Assay: GPCA
# Conditions: with partner chain of the complex shown;; read off a plot
row,Variant,ratio to parent
1,chain 1 I73A,0.11
2,chain 1 E39A,0.92
3,chain 1 R27D,0.66
4,chain 1 N181T,0.93
5,chain 1 R37A,0.06

# Variants of: B2
# Assay: GPCA
# Conditions: with partner chain of the complex shown;; read off a plot
row,Variant,ratio to parent
1,chain 1 I73A,0.97
2,chain 1 N181T,0.95
3,chain 1 E39A,1.2
4,chain 1 R27D,0.91
5,chain 1 R37A,1.1
